Source: patent publication US10877024B2, “Methods of determining interferon having direct inhibitory effects on tumors and uses thereof” (SUPERLAB FAR EAST LIMITED, priority 2015, dated 2020)

Tested on: Lung cancer cells, A549
Test: Colony and pseudopod formation in three dimensional Matrigel culture
Type: cell-based, human
Conditions: 10 mcg/ml
Experimental: Matrigel (from BD Corporation, Cat #: 356234) was thawed on ice in a 4° C. refrigerator overnight, and a 24-well plate was frozen at −20° C. overnight. Thereafter, each well of the frozen 24-well plate was coated with 150 μl of the Matrigel at 1.0 mg/ml. The Matrigel coated plate was then incubated 37° C. for 20-30 min. Lung cancer cells, A549, were trypsinized and counted. […] The cells were incubated at 37° C. for at least about 8 days. About 200 μl of the above conditioned medium was added every 3 days to prevent the medium from drying. On the 4th or 8th day, photographs were taken to observe the size of the colonies and invasive feet (pseudopod) formation. The experiment was conducted in triplicate.

B1: rSIFN-co: Recombinant super-compound interferon; amino acid sequence SEQ ID NO: 1 (same as INFERGEN), encoded by novel nucleotide sequence SEQ ID NO: 2 (protein)
chain: MCDLPQTHSLGNRRALILLAQMRRISPFSCLKDRHDFGFPQEEFDGNQFQKAQAISVLHEMIQQTFNLFSTKDSSAAWDESLLEKFYTELYQQLNDLEACVIQEVGVEETPLMNVDSILAVKKYFQRITLYLTEKKYSPCAWEVVRAEIMRSFSLSTNLQERLRRKE
modifications: Amino acid sequence of recombinant interferon
size of the colonies (after 4 days): smaller colonies than the untreated group | invasive feet (pseudopod) formation (after 8 days): almost no extrusive pseudopodium around the cells | size of the colonies (after 8 days): smallest colonies of the 3 groups
